As a reminder, the Kd is a measure of binding affinity in units of concentration.

In patent US20120244144A1 (University of Texas, published 2012) one finds In Vitro Neutralization (nM), minimum protective concentration, CHO clustering assay and Kd data, which are given here for 4 molecules.

Experiment [1] has as its target pertussis toxin holotoxin (Bordetella pertussis) (UniProt P04977). Description: cell-based or functional assay.
The target is the same in experiment [2]. Description: competition ELISA (Friguet), 5 nM antibody, soluble PT. Background: In an ELISA, binding on a coated surface is turned into a signal by an enzyme label.
For experiment [3], the target named is pertussis toxin holotoxin (Bordetella pertussis), P04977. To be noted: remark: other sources report otherwise.

11E6 scAb (scFv) registered an In Vitro Neutralization (nM), minimum protective concentration, CHO clustering assay in experiment [1] of 377 nM. This molecule also displayed a Kd in experiment [2] of 19 nM.
The corresponding values for 11E6 Fab are 42 nM and 9.3 nM.
Molecule 1B7 F(ab)2 had an In Vitro Neutralization (nM), minimum protective concentration, CHO clustering assay in experiment [1] of 15 nM.

B1: 1B7 Fab (Fab)
chain: DIQMTQSPALMSASPGEKVTMTCSASSSVSFMYWYQQKPRSSPKPWIYLTSNLPSGVPARFSGSGSGTSYSLTISSMEAEDAATYYCQQWSSHPPTFGSGTKLEIKRGGGGSGGGGSGGGGSGGGGSEVQLQQSGSELVRPGASVKLSCKASGYKFTSYWMHWVKQRPGQGLEWIGNIFPGSGSTNYDEKFNSKATLTVDTSSNTAYMQLSSLTSEDSAVYYCTRWLSGAYFDYWGQGTTLTVSSASGA
The molecule B1 returned a dissociation constant (Kd) in experiment [3] of 2 nM. That is a single-digit nanomolar value.
